Tests used:
[1] = system: JeKo-1 mantle cell lymphoma cells; experiment: Incucyte co-culture of chimeric Tim4 receptor T cells with JeKo-1 mCherry+ cells; format: cell-based; conditions: 1:1 E:T ratio; T cells transduced with 5MOI; FIG. 17
Procedure: FIG. 17. Multiple chimeric Tim4 constructs eliminate ibrutinib treated JeKo-1 cells. T cells generated from healthy donor PBMCs were transduced with 5MOI of CTX137, CTX140, CTX143, or CTX156 (tEGFR control). Cells were cocultured at a 1:1 E:T ratio with Jeko-1 mCherry+ cells. Surviving Jeko-1 mCherry+ cells were counted every 2 hours and normalized to the count at 2 h. Wells were plated in duplicate. Error bars represent +/−SEM.
Chimeric Tim4 receptor (CTX137, CTX140, or CTX143) modified T cells were generated from healthy donor PBMCs. CD4+ and CD8+ T cells were isolated and mixed at a 1:1 ratio, then stimulated overnight with TransACT. Activated T cells were transduced with 5MOI of the indicated construct. Cells were used for Incucyte experiments 6 days after transduction. JeKo-1 mCherry+ cells were plated with chimeric Tim4 receptor-T cells at a 1:1 effector:target (E:T) ratio. Surviving Jeko-1 mCherry+ cells were counted every 2 hours and normalized to the count at 2 h. Wells were plated in duplicate.

Jeko-1 MCL tumor = experiment: JeKo-1 fLuc+ tumor model, chimeric Tim4 receptor T cells plus ibrutinib, bioluminescence imaging; format: in vivo; conditions: NSG mice, 1e6 Jeko-1 fLuc+ i.v.; ibrutinib 125 mg/kg daily for 3 days, then 1e6 T cells i.v. and 8 mg/kg ibrutinib daily; FIG. 18
Procedure: FIG. 18. […] NSG mice were inoculated i.v. with 1e6 Jeko-1 fLuc+ cells. 4 days after inoculation, mice were dosed daily with 125 mg/kg ibrutinib by oral gavage for 3 days. 7 days after inoculation, 1e6 chimeric Tim4 receptor-T cells were infused i.v. Following T cell infusion, mice were dosed daily with 8 mg/kg ibrutinib. N=10 mice per group. Chimeric Tim4 receptor-T cells were generated from healthy donor PBMCs. CD4+ and CD8+ T cells were isolated and mixed at a 1:1 ratio, then stimulated overnight with TransACT. Activated T cells were transduced with 5MOI of the indicated construct (CTX137, CTX140, or CTX156). Cells were used for Incucyte experiments 7 days after transduction. NSG mice were inoculated intravenously with 1e6 Jeko-1 fLuc+ cells. Mice were dosed with 125 mg/kg of Ibrutinib by oral gavage daily for 3 days, then transfused with 1e6 CER-T cells and dosed daily with 8 mg/kg Ibrutinib for the duration of the experiment. Tumor growth was monitored by bioluminescence imaging (BLI) (sum of photons from 8 sec exposure). n=10 for each group.

[2] = system: JeKo-1 mantle cell lymphoma cells; experiment: Incucyte killing of ibrutinib pre-treated JeKo-1 mCherry+ cells by chimeric Tim4 receptor T cells; format: cell-based; conditions: JeKo-1 pre-treated with 25 μM ibrutinib for 20 hours; 2:1 effector:target ratio; 0.5 μM ibrutinib present; FIG. 16
Procedure: FIG. 16. Chimeric Tim4 receptor killing of ibrutinib pre-treated JeKo-1 cells. JeKo-1 mantle cell lymphoma cells engineered to express mCherry were pre-treated with 25 μM ibrutinib for 20 hours. T cells transduced with chimeric Tim4 receptor (CTX137) or CTX156 (tEGFR control) were co-cultured at a 2:1 effector:target ratio with JeKo-1 cells mCherry+ cells in the presence of 0.5 μM ibrutinib. Surviving JeKo-1 mCherry+ cells were counted every 2 hours and normalized to the count at 2 h. Wells were plated in duplicate. Error bars represent +/−SEM.
Chimeric Tim4 receptor-T cells were generated from healthy donor PBMCs. CD4+ and CD8+ T cells were isolated and mixed at a 1:1 ratio, then stimulated overnight with TransACT. Activated T cells were transduced with 5MOI of the indicated construct (CTX137 or CTX156). Cells were used for Incucyte experiments 6 days after transduction. JeKo-1 cells engineered to express mCherry were treated with 25 μM BTK inhibitor ibrutinib for 20 hours then washed. T cells and target cells were incubated at a 2:1 effector:target ratio in the presence of 0.5 μM ibrutinib. Surviving JeKo-1 mChery+ cells were counted every 2 hours and normalized to the count at 2 hours. Wells were plated in duplicate.

B1: CTX143: Chimeric Tim4 receptor (SEQ ID NO:45): Tim4 binding domain, modified IgG4 hinge, CD28 transmembrane, CD28 costimulatory, DAP12 signaling domain (protein)
chain: MSKEPLILWLMIEFWWLYLTPVTSETVVTEVLGHRVTLPCLYSSWSHNSNSMCWGKDQCPYSGCKEALIRTDGMRVTSRKSAKYRLQGTIPRGDVSLTILNPSESDSGVYCCRIEVPGWFNDVKINVRLNLQRASTTTHRTATTTTRRTTTTSPTTTRQMTTTPAALPTTVVTTPDLTTGTPLQMTTIAVFTTANTCLSLTPSTLPEEATGLLTPEPSKEGPILTAESETVLPSDSWSSVESTSADTVLLTSKESKVWDLPSTSHVSMWKTSDSVSSPQPGASDTAVPEQNKTTKTGQMDGIPMSMKNEMPISQESKYGPPCPPCPFWVLVVVGGVLACYSLLVTVAFIIFWVRSKRSRLLHSDYMNMTPRRPGPTRKHYQPYAPPRDFAAYRSYFLGRLVPRGRGAAEAATRKQRITETESPYQELQGQRSDVYSDLNTQRPYYK
modifications: Tim4 binding domain-modified IgG4 hinge-CD28 transmembrane-CD28 costimulatory signaling domain-DAP12 signaling domain; SIGNAL (1)..(24)
With B1 the “elimination of JeKo-1 cells (surviving mCherry+ cells normalized to count at 2 h)” value [1] was “eliminate JeKo-1 mantle cell lymphoma cells”.

B2: CTX140: Chimeric Tim4 receptor (SEQ ID NO:44): Tim4 binding domain, CD28 hinge, CD28 transmembrane, CD28 costimulatory, DAP12 signaling domain (protein)
chain: MSKEPLILWLMIEFWWLYLTPVTSETVVTEVLGHRVTLPCLYSSWSHNSNSMCWGKDQCPYSGCKEALIRTDGMRVTSRKSAKYRLQGTIPRGDVSLTILNPSESDSGVYCCRIEVPGWFNDVKINVRLNLQRASTTTHRTATTTTRRTTTTSPTTTRQMTTTPAALPTTVVTTPDLTTGTPLQMTTIAVFTTANTCLSLTPSTLPEEATGLLTPEPSKEGPILTAESETVLPSDSWSSVESTSADTVLLTSKESKVWDLPSTSHVSMWKTSDSVSSPQPGASDTAVPEQNKTTKTGQMDGIPMSMKNEMPISQIEVMYPPPYLDNEKSNGTIIHVKGKHLCPSPLFPGPSKPFWVLVVVGGVLACYSLLVTVAFIIFWVRSKRSRLLHSDYMNMTPRRPGPTRKHYQPYAPPRDFAAYRSYFLGRLVPRGRGAAEAATRKQRITETESPYQELQGQRSDVYSDLNTQRPYYK
modifications: Tim4 binding domain-CD28 hinge-CD28 transmembrane-CD28 costimulatory signaling domain-DAP12 signaling domain; SIGNAL (1)..(24)
In the case of B2, the “elimination of JeKo-1 cells (surviving mCherry+ cells normalized to count at 2 h)” value [1] is reported as “eliminate JeKo-1 mantle cell lymphoma cells” and the “protection against JeKo-1 tumor (tumor growth by BLI)” value (Jeko-1 MCL tumor) is reported as “provide early protection”.

B3: CTX137: Chimeric Tim4 receptor (SEQ ID NO:68): Tim4 binding domain, CD28 transmembrane, CD28 costimulatory, DAP12 signaling domain; expressed in T cells (protein)
chain: MSKEPLILWLMIEFWWLYLTPVTSETVVTEVLGHRVTLPCLYSSWSHNSNSMCWGKDQCPYSGCKEALIRTDGMRVTSRKSAKYRLQGTIPRGDVSLTILNPSESDSGVYCCRIEVPGWFNDVKINVRLNLQRASTTTHRTATTTTRRTTTTSPTTTRQMTTTPAALPTTVVTTPDLTTGTPLQMTTIAVFTTANTCLSLTPSTLPEEATGLLTPEPSKEGPILTAESETVLPSDSWSSVESTSADTVLLTSKESKVWDLPSTSHVSMWKTSDSVSSPQPGASDTAVPEQNKTTKTGQMDGIPMSMKNEMPISQFWVLVVVGGVLACYSLLVTVAFIIFWVRSKRSRLLHSDYMNMTPRRPGPTRKHYQPYAPPRDFAAYRSYFLGRLVPRGRGAAEAATRKQRITETESPYQELQGQRSDVYSDLNTQRPYYK
modifications: Tim4 binding domain-CD28 transmembrane-CD28 costimulatory signaling domain-DAP12 signaling domain; SIGNAL (1)..(24)
notes: expressed in T cells
In the case of B3, the “killing of ibrutinib pretreated JeKo-1 cells (surviving mCherry+ cells normalized to count at 2 h)” value [2] is reported as “induced killing”, the “elimination of JeKo-1 cells (surviving mCherry+ cells normalized to count at 2 h)” value [1] is reported as “eliminate JeKo-1 mantle cell lymphoma cells” and the “protection against JeKo-1 tumor (tumor growth by BLI)” value (Jeko-1 MCL tumor) is reported as “provide early protection”.
